# Test results published in patent publication US20230322957A1 (ENGMAB SARL, published 2023).
# B1: Mab 22 IgG (antibody, V domains shown)
# VH: EVQLLESGGGLVQPGGSLRLSCAASGFTFSDNAMGWVRQAPGKGLEWVSAISGPGSSTYYADSVKGRFTISRDNSKNTLYLQMNSLRAEDTAVYYCAKVLGWFDYWGQGTLVTVSS
# VL: EIVLTQSPGTLSLSPGERATLSCRASQSVSSYYLAWYQQKPGQAPRLLISGAGSRATGIPDRFSGSGSGTDFTLTISRLEPEDFAVYYCQQYGYPPDFTFGQGTKVEIK
# notes: Tested as human IgG1; also called antibody 22; clone 22
# B2: Mab 27 IgG (antibody, V domains shown)
# VH: EVQLLESGGGLVQPGGSLRLSCAASGFTFSSAPMGWVRQAPGKGLEWVSAISYIGHTYYADSVKGRFTISRDNSKNTLYLQMNSLRAEDTAVYYCAKVLGWFDYWGQGTLVTVSS
# VL: EIVLTQSPGTLSLSPGERATLSCRASQSVSEYYLAWYQQKPGQAPRLLIEHASTRATGIPDRFSGSGSGTDFTLTISRLEPEDFAVYYCQQYGYPPDFTFGQGTKVEIK
# notes: Tested as human IgG1
# B3: Mab 33 IgG (antibody, V domains shown)
# VH: EVQLLESGGGLVQPGGSLRLSCAASGFTFYTNAMGWVRQAPGKGLEWVSAINRFGGSTYYADSVKGRFTISRDNSKNTLYLQMNSLRAEDTAVYYCAKVLGWFDYWGQGTLVTVSS
# VL: EIVLTQSPGTLSLSPGERATLSCRASQSVSEYYLAWYQQKPGQAPRLLIEHASTRATGIPDRFSGSGSGTDFTLTISRLEPEDFAVYYCQQYGYPPDFTFGQGTKVEIK
# notes: Tested as human IgG1
# B4: Mab 42 IgG (antibody, V domains shown)
# VH: EVQLLESGGGLVQPGGSLRLSCAASGFTFSDNAMGWVRQAPGKGLEWVSAISGPGSSTYYADSVKGRFTISRDNSKNTLYLQMNSLRAEDTAVYYCAKVLGWFDYWGQGTLVTVSS
# VL: EIVLTQSPGTLSLSPGERATLSCRASQSVSDEYLSWYQQKPGQAPRLLIHSASTRATGIPDRFSGSGSGTDFTLAISRLEPEDFAVYYCQQYGYPPDFTFGQGTKVEIK
# notes: Tested as human IgG1; also called antibody 42; clone 42
# B5: Mab 39 IgG (antibody, V domains shown)
# VH: EVQLLESGGGLVQPGGSLRLSCAASGFTFTQNAMGWVRQAPGKGLEWVSAISPTGFSTYYADSVKGRFTISRDNSKNTLYLQMNSLRAEDTAVYYCAKVLGWFDYWGQGTLVTVSS
# VL: EIVLTQSPGTLSLSPGERATLSCRASQSVSEYYLAWYQQKPGQAPRLLIEHASTRATGIPDRFSGSGSGTDFTLTISRLEPEDFAVYYCQQYGYPPDFTFGQGTKVEIK
# notes: Tested as human IgG1
# B6: 83A10-TCBcv (bispecific antibody, human IgG1, kappa, L234A L235A)
# heavy 1: not shown
# heavy 2: not shown
# light 1: not shown
# light 2: EVQLLESGGGLVQPGGSLRLSCAASGFTFSTYAMNWVRQAPGKGLEWVSRIRSKYNNYATYYADSVKGRFTISRDDSKNTLYLQMNSLRAEDTAVYYCVRHGNFGNSYVSWFAYWGQGTLVTVSSASVAAPSVFIFPPSDEQLKSGTASVVCLLNNFYPREAKVQWKVDNALQSGNSQESVTEQDSKDSTYSLSSTLTLSKADYEKHKVYACEVTHQGLSSPVTKSFNRGEC
# Tests used:
# [1] = target: recombinant cynomolgus BCMA Fc(kih) (cynomolgus, UniProt A0A2K5UD97 4-51, biotinylated in vivo at the avi-tag at the C-terminus of the Fc knob chain); assay: ratio of the SPR KDs of Table 4, human BCMA as reference
# Sequence of recombinant cynomolgus BCMA Fc(kih) (A0A2K5UD97 entry or part of it): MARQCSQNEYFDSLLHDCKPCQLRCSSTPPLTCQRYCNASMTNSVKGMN
# Method: Assessment of binding of anti-BCMA antibodies to recombinant BCMA by surface plasmon resonance (SPR) as follow. All SPR experiments were performed on a Biacore T200 at 25° C. with HBS-EP as running buffer (0.01M HEPES pH 7.4, 0.15M NaCl, 3 mM EDTA, 0.005% Surfactant P20, Biacore, Freiburg/Germany). The avidity of the interaction between anti-BCMA antibodies and recombinant BCMA Fc(kih) (human and cynomolgus) was determined. Biotinylated recombinant human and cynomolgus BCMA Fc(kih) were directly coupled on a SA chip following instructions (Biacore, Freiburg/Germany). The immobilization level ranged from 200 to 700 RU. […] The dissociation was monitored for 180 seconds. Bulk refractive index differences were corrected for by subtracting the response obtained on the reference flow cell. Here, the anti-BCMA antibodies were flown over an empty surface previously activated and deactivated as described in the standard amine coupling kit. Apparent kinetic constants were derived using the Biacore T200 Evaluation Software (vAA, Biacore AB, Uppsala/Sweden), to fit rate equations for 1:1 Langmuir binding by numerical integration, despite the bivalency of the interaction for comparison purposes. The affinity of the interaction between anti-BCMA antibodies and recombinant human BCMA Fc(kih) was also determined. Anti-human Fab antibody (GE Healthcare) was directly coupled on a CM5 chip at pH 5.0 using the standard amine coupling kit (Biacore, Freiburg/Germany). The immobilization level was about 6500 RU. […] The dissociation was monitored for 120 seconds. Bulk refractive index differences were corrected for by subtracting the response obtained on reference flow cell. […] Kinetic constants were derived using the Biacore T100 Evaluation Software (vAA, Biacore AB, Uppsala/Sweden), to fit rate equations for 1:1 Langmuir binding by numerical integration (Table 4).
# [2] = target: T1, human BCMA on the cell surface (human, UniProt Q02223 1-184); assay: cell-based or functional assay
# T1 sequence (looked up): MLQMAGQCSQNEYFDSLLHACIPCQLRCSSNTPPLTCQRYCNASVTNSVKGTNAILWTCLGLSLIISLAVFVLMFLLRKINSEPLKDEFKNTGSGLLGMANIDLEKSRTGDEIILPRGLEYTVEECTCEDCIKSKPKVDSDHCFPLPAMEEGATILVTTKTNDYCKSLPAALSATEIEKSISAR
# [3] = target: T1, human BCMA on the cell surface; assay: cell-based or functional assay; remark: listed apart in the source
# [4] = target: T1, human BCMA on the cell surface; assay: cell-based or functional assay; remark: listed apart in the source
# [5] = target: T1, human BCMA on the cell surface; assay: cell-based or functional assay; remark: listed apart in the source
# [6] = target: T1, human BCMA on the cell surface; assay: cell-based or functional assay; remark: listed apart in the source
# [7] = target: T1, human BCMA on the cell surface; assay: cell-based or functional assay; remark: listed apart in the source
# [8] = target: T1, human BCMA on the cell surface; assay: cell-based or functional assay; remark: listed apart in the source
binder,measurement,setting,value
B1,Affinity cyno/hu gap (KD cynomolgus BCMA / KD human BCMA),[1],15.4 fold
B2,Affinity cyno/hu gap (KD cynomolgus BCMA / KD human BCMA),[1],12.7 fold
B3,Affinity cyno/hu gap (KD cynomolgus BCMA / KD human BCMA),[1],4.2 fold
B4,Affinity cyno/hu gap (KD cynomolgus BCMA / KD human BCMA),[1],1.7 fold
B5,Affinity cyno/hu gap (KD cynomolgus BCMA / KD human BCMA),[1],14 fold
B6,"Granzyme B secretion EC50, PBMC + RPMI-8226 cells (CBA)",[2],0.34 nM
same,"IL-10 secretion EC50, PBMC + RPMI-8226 cells (CBA)",[2],0.3 nM
same,"TNF-α secretion EC50, PBMC + RPMI-8226 cells (CBA)",[2],0.52 nM
same,"EC50 redirected T-cell killing of H929 cells (LDH release), Donor 1",[3],0.0039 nM
same,"EC50 redirected T-cell killing of H929 cells (LDH release), Donor 3",[3],0.0085 nM
same,"EC50 redirected T-cell killing of H929 cells (LDH release), Donor 4",[3],0.005 nM
same,"EC50 redirected T-cell killing of H929 cells (LDH release), Donor 5",[3],0.0043 nM
same,"EC50 redirected T-cell killing of H929 cells (LDH release), Donor 6",[3],0.0015 nM
same,"Lysis of JJN-3 cells (%) at 0.1 pM, Experiment 2",[4],22.3%
same,"Lysis of JJN-3 cells (%) at 1 pM, Experiment 1",[4],24.4%
same,"Lysis of JJN-3 cells (%) at 1 pM, Experiment 2",[4],-1.88%
same,"Lysis of JJN-3 cells (%) at 10 pM, Experiment 1",[4],41.9%
same,"Lysis of JJN-3 cells (%) at 10 pM, Experiment 2",[4],39.6%
same,"Lysis of JJN-3 cells (%) at 100 pM, Experiment 1",[4],18.4%
same,"Lysis of JJN-3 cells (%) at 100 pM, Experiment 2",[4],20.1%
same,"Lysis of JJN-3 cells (%) at 1000 pM, Experiment 1",[4],26.7%
same,"Lysis of JJN-3 cells (%) at 1000 pM, Experiment 2",[4],25.3%
same,"Lysis of JJN-3 cells (%) at 10000 pM, Experiment 1",[4],70.3%
same,"Lysis of JJN-3 cells (%) at 10000 pM, Experiment 2",[4],51.2%
same,"EC50 redirected T-cell killing of L363 cells (LDH release), Donor 1",[5],0.0168 nM
same,"EC50 redirected T-cell killing of L363 cells (LDH release), Donor 2",[5],0.0478 nM
same,"EC50 redirected T-cell killing of L363 cells (LDH release), Donor 3",[5],0.0284 nM
same,"EC50 redirected T-cell killing of L363 cells (LDH release), Donor 4",[5],0.0126 nM
same,"EC50 redirected T-cell killing of L363 cells (LDH release), Donor 5",[5],0.039 nM
same,"Annexin-V positive JJN-3 cells (%) at 0.1 pM, Experiment 2",[6],13.1%
same,"Annexin-V positive JJN-3 cells (%) at 1 pM, Experiment 1",[6],11.4%
same,"Annexin-V positive JJN-3 cells (%) at 1 pM, Experiment 2",[6],14.3%
same,"Annexin-V positive JJN-3 cells (%) at 10 pM, Experiment 1",[6],11.1%
same,"Annexin-V positive JJN-3 cells (%) at 10 pM, Experiment 2",[6],15.9%
same,"Annexin-V positive JJN-3 cells (%) at 100 pM, Experiment 1",[6],9.12%
same,"Annexin-V positive JJN-3 cells (%) at 100 pM, Experiment 2",[6],16.5%
same,"Annexin-V positive JJN-3 cells (%) at 1000 pM, Experiment 1",[6],10.2%
same,"Annexin-V positive JJN-3 cells (%) at 1000 pM, Experiment 2",[6],17.5%
same,"Annexin-V positive JJN-3 cells (%) at 10000 pM, Experiment 1",[6],16.8%
same,"Annexin-V positive JJN-3 cells (%) at 10000 pM, Experiment 2",[6],22.9%
same,Annexin-V positive patient bone marrow myeloma plasma cells (%) at 10 pM,[7],16.8%
same,Annexin-V positive patient bone marrow myeloma plasma cells (%) at 100 pM,[7],15.7%
same,Annexin-V positive patient bone marrow myeloma plasma cells (%) at 1000 pM,[7],23.1%
same,Annexin-V positive patient bone marrow myeloma plasma cells (%) at 10000 pM,[7],30.9%
same,Annexin-V positive patient bone marrow myeloma plasma cells (%) at 30000 pM,[7],29.3%
same,"EC50 redirected T-cell killing of RPMI-8226 cells (LDH release), Donor 2",[8],0.621 nM
same,"EC50 redirected T-cell killing of RPMI-8226 cells (LDH release), Donor 3",[8],0.229 nM
same,"EC50 redirected T-cell killing of RPMI-8226 cells (LDH release), Donor 4",[8],0.035 nM
same,"EC50 redirected T-cell killing of RPMI-8226 cells (LDH release), Donor 5",[8],0.0649 nM
